# B1: MEL-1872 (antibody)
# VH: KVQLRESGPSLVKPSQTLSLTCTASGFSLSDKAVGWVRQAPGQPLEWLGTIDTTGNAVYNPGLKSRLSITKDNSKSQVSLSLSSVTTEDSATYHCSTVHQKTRRSCPSDYSFICDCEGTGSHCCRASNCPYYCNYGRDRMCTGRSNIHEWHVDAWGQGLLVTVSS
# VL: QAVLTQPSSVSGSLGQRVSTTCSGSSSNVGNGYVSWYQLIPGSAPRTLIYGDTSRASGVPDRFSGSRSGNTVTLTISSLQAEDEADYFCASAEDGSSNAVFGRGTTLTV
# notes: also called H 1872; BrNAb MEL-1872
# Biological target: AD8 WT Env (gp160, from lysed pseudovirions / on pseudovirus) (HIV-1 AD8, clade B)
# Experiment: cell-based or functional assay
binder,measurement,value
B1,"IC50 (read off the curve); axis Neutralisation (%), panel AD8",~7 ng/mL
